Measured values taken from US10704056B2, “Constitutively active ABA receptor mutants” (The Regents of the University of California, priority 2011, dated 2020).

Each molecule was assayed on HAB1 (assay: In vitro PP2C phosphatase (pNPP) receptor activation assay with HAB1). Details: 600 nM GST-HAB1, 0-4800 nM receptor, no ABA.
Format: biochemical, Arabidopsis
Procedure: Recombinant receptor proteins were produced as follows: Coding sequences were cloned into pET28 yielding 6×HIS (SEQ ID NO:173) fusions proteins and transformed into E. coli expression strain BL21. […]. Cells were stored at −80° C. before purification. After thawing, cells were sonicated on ice five times for 30 sec with 30 sec resting intervals. A cleared lysate was obtained after centrifugation at 12,000×g for 10 min and applied to 1 ml of Ni-NTA column (Qiagen) and washed with 20 column volumes of Buffer A containing 30 mM imidazole. Bound protein was eluted with 10 ml of Buffer A with 250 mM imidazole. The elutate was dialyzed against TBS. The purified recombinant proteins were then used together with recombinant phosphatases in receptor assays. In these assays, receptor activity is indicated by inhibition of phosphatase activity, as inferred from initial reaction velocities for GST-HAB1 mediated hydrolysis of the synthetic phosphatase substrate pNPP. Reactions contained 600 nM GST-HAB1 and either 0, 600, 1200, 2400 or 4800 nM 6×His-PYR1 or variants in a reaction buffer consisting of 33 mM Tris-OAc, pH 7.9, 66 mM KOAc, 0.1% BSA, 25 mM Mn(OAc)2, 50 mM pNPP. To infer the level of receptor activation with respect to fully activated wild type receptor, control reactions were also conducted using saturating levels of (+)-ABA (10 μM), and 600 nM wild type PYR1 and HAB1. Immediately after mixing proteins and substrates, reactions were monitored for hydrolysis of pNPP at A405 at ˜10 second intervals over 20 minutes using a Wallac plate reader. Reaction progressions were plotted, initial velocities calculated and converted to specific activities using a standard curve for 4-nitrophenol made in the same buffer system volumes/plate reader used for enzymatic reaction measurements. The values shown are expressed as %-control phosphatase activity levels as measured in the absence of receptor protein. The average specific activity level of GST-HAB1 utilized in our experiments was 4000 μmol/min/mg, when assayed on the phosphatase substrate pNPP in the absence of PYR1 or other receptors, as described using the methods above.
Full length ABI1 and ABI2 were cloned into a modified pSUMO vector (LifeSensors Inc, USA) vector yielding 6×His-SUMO fusion proteins; GST-HAB1 was expressed and purified as previously described (Park et al., 2009). Mutant receptors were cloned into pET28 yielding 6×His-fusion proteins. […]. The cultures were pre-incubated 2 hours at 30° C. and, for PP2C expression, media was supplemented with 4 mM MnCl2 one hour after inoculation. After pre-incubation, IPTG was added (1 mM) and cells were induced at 15° C. for 16 hours, after which they were collected by centrifugation, resuspended in 5 ml Buffer A (50 mM NaH2PO4, 300 mM NaCl) +10 mM imidazole, pH 8.0 and stored at −80° C. For purification, cells were thawed, sonicated on ice (60 seconds) and a cleared lysate was then applied a 1 ml-bed volume column of Ni-NTA (Qiagen, USA), washed with 20 column volumes of Buffer A+30 mM imidazole and bound protein eluted with 1 ml of Buffer A+250 mM imidazole. For receptors, the elutate was dialyzed against TBS and for PP2Cs, fusion proteins were desalted by passage over a Sephadex G50 column.
The purified receptors and phosphatases were then used in receptor assays where receptor activation is indicated by inhibition of phosphatase activity, as inferred from initial reaction velocities for PP2C-mediated hydrolysis of the synthetic phosphatase substrate pNPP in reactions containing 600 nM PP2C and either 0, 600, 1200, 2400 or 4800 nM receptor. The receptor assay buffer consisted of 33 mM Tris-OAc, pH 7.9, 66 mM KOAc, 0.1% BSA, 25 mM Mn(OAc)2, 0.1%13-ME and 50 mM pNPP. Immediately after mixing proteins and substrates, reactions were monitored for hydrolysis of pNPP at A405 at ˜2 minutes intervals using a Wallac plate reader. […]

basal receptor activity (inhibition of HAB1 phosphatase activity in the absence of ABA) | Molecule
increase basal activity of receptors | K170W: PYR1 receptor mutant with amino acid substitution K170W (protein, synthetic mutated PYR/PYL receptor polypeptide PYR1 K170W) MPSELTPEERSELKNSIAEFHTYQLDPGSCSSLHAQRIHAPPELVWSIVRRFDKPQTYKHFIKSCSVEQNFEMRVGCTRDVIVISGLPANTSTERLDILDDERRVTGFSIIGGEHRLTNYKSVTTVHRFEKENRIWTVVLESYVVDMPEGNSEDDTRMFADTVVKLNLQWLATVAEAMARNSGDGSGSQVT
increase basal activity of receptors | F159V: PYR1 receptor mutant with amino acid substitution F159V (protein, synthetic mutated PYR/PYL receptor polypeptide PYR1 F159V) MPSELTPEERSELKNSIAEFHTYQLDPGSCSSLHAQRIHAPPELVWSIVRRFDKPQTYKHFIKSCSVEQNFEMRVGCTRDVIVISGLPANTSTERLDILDDERRVTGFSIIGGEHRLTNYKSVTTVHRFEKENRIWTVVLESYVVDMPEGNSEDDTRMVADTVVKLNLQKLATVAEAMARNSGDGSGSQVT
increase basal activity of receptors | T162F: PYR1 receptor mutant with amino acid substitution T162F (protein, synthetic mutated PYR/PYL receptor polypeptide PYR1 T162F) MPSELTPEERSELKNSIAEFHTYQLDPGSCSSLHAQRIHAPPELVWSIVRRFDKPQTYKHFIKSCSVEQNFEMRVGCTRDVIVISGLPANTSTERLDILDDERRVTGFSIIGGEHRLTNYKSVTTVHRFEKENRIWTVVLESYVVDMPEGNSEDDTRMFADFVVKLNLQKLATVAEAMARNSGDGSGSQVT

Second part, the molecule before the results:

Molecule | basal receptor activity (inhibition of HAB1 phosphatase activity in the absence of ABA)
H60P: PYR1 (SEQ ID NO:1) receptor mutant with amino acid substitution H60P (protein, listed as Arabidopsis thaliana, thale cress PYR/PYL receptor, Pyrabactin resistance 1, abscisic acid receptor PYR1 (PYR1), ABI1-binding protein 6 (ABIP6), regulatory components of ABA receptor 11 (RCAR11), At4g17870, T6K21.50) MPSELTPEERSELKNSIAEFHTYQLDPGSCSSLHAQRIHAPPELVWSIVRRFDKPQTYKPFIKSCSVEQNFEMRVGCTRDVIVISGLPANTSTERLDILDDERRVTGFSIIGGEHRLTNYKSVTTVHRFEKENRIWTVVLESYVVDMPEGNSEDDTRMFADTVVKLNLQKLATVAEAMARNSGDGSGSQVT | increase basal activity of receptors
M158I: PYR1 receptor mutant with amino acid substitution M158I (protein, synthetic mutated PYR/PYL receptor polypeptide PYR1 M158I) MPSELTPEERSELKNSIAEFHTYQLDPGSCSSLHAQRIHAPPELVWSIVRRFDKPQTYKHFIKSCSVEQNFEMRVGCTRDVIVISGLPANTSTERLDILDDERRVTGFSIIGGEHRLTNYKSVTTVHRFEKENRIWTVVLESYVVDMPEGNSEDDTRIFADTVVKLNLQKLATVAEAMARNSGDGSGSQVT | increase basal activity of receptors
V83F: PYR1 receptor mutant with amino acid substitution V83F (protein, synthetic mutated PYR/PYL receptor polypeptide PYR1 V83F) MPSELTPEERSELKNSIAEFHTYQLDPGSCSSLHAQRIHAPPELVWSIVRRFDKPQTYKHFIKSCSVEQNFEMRVGCTRDVIFISGLPANTSTERLDILDDERRVTGFSIIGGEHRLTNYKSVTTVHRFEKENRIWTVVLESYVVDMPEGNSEDDTRMFADTVVKLNLQKLATVAEAMARNSGDGSGSQVT | increase basal activity of receptors
A89W: PYR1 receptor mutant with amino acid substitution A89W (protein, synthetic mutated PYR/PYL receptor polypeptide PYR1 A89W) MPSELTPEERSELKNSIAEFHTYQLDPGSCSSLHAQRIHAPPELVWSIVRRFDKPQTYKHFIKSCSVEQNFEMRVGCTRDVIVISGLPWNTSTERLDILDDERRVTGFSIIGGEHRLTNYKSVTTVHRFEKENRIWTVVLESYVVDMPEGNSEDDTRMFADTVVKLNLQKLATVAEAMARNSGDGSGSQVT | increase basal activity of receptors
I84Q: PYR1 receptor mutant with amino acid substitution I84Q (protein, synthetic mutated PYR/PYL receptor polypeptide PYR1 I84Q) MPSELTPEERSELKNSIAEFHTYQLDPGSCSSLHAQRIHAPPELVWSIVRRFDKPQTYKHFIKSCSVEQNFEMRVGCTRDVIVQSGLPANTSTERLDILDDERRVTGFSIIGGEHRLTNYKSVTTVHRFEKENRIWTVVLESYVVDMPEGNSEDDTRMFADTVVKLNLQKLATVAEAMARNSGDGSGSQVT | increase basal activity of receptors
